Experimental data taken from patent US20020173481A1.

Biological target: endogenous GCSF receptor of 32Dcl3 cells
Experiment: cell-based or functional assay

kinase activity of Bmx in 32Dcl3 cells: 1.7 fold
Substance: hGCSF (from UniProt P09919 31-204) (ligand)
